# From publication PMC7731665 (Frontiers in Immunology, 2020)
# Molecular target: T1, vimentin in lupus nephritis kidney tissue (Homo sapiens, UniProt P08670)
# T1 construct: endogenous vimentin of human lupus nephritis biopsies; vimentin-rich zones marked with the anti-vimentin antibody V9; also called Vim^hi zones of inflamed lupus kidney; source: endogenous, paraffin embedded human lupus kidney biopsies
# Test: immunostaining of cells or tissue; paraffin embedded lupus nephritis kidney biopsies, FLAG-tagged human IgG1 mAbs detected with rat anti-FLAG and Alexa Fluor 488 anti-rat IgG, co-stained with V9 and Hoechst; confocal microscopy, per field of view
# Conditions: one partner purified
# T1 sequence (P08670 whole entry): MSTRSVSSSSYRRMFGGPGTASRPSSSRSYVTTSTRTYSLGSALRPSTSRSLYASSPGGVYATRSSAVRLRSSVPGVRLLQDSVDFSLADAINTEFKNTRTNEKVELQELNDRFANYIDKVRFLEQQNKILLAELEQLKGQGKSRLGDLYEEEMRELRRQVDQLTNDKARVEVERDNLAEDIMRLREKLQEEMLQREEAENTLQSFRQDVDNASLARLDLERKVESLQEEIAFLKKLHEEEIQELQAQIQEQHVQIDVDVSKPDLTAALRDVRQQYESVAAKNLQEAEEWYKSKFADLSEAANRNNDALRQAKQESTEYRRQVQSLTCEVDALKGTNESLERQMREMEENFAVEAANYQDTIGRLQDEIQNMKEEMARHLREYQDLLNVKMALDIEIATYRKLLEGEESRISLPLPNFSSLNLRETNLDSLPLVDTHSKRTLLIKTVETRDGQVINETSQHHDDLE
binder,measurement,value
"FLAG-tagged PB4rev (antibody, V domains shown, as the heavy chain of m8; as the light chain of m8; also called PB4rev (FLAG); source: heavy chain vector FJ475055 with FLAG co-expressed with the light chain plasmid, purified with protein A; not shown: FLAG, C-terminal, kept) VH: QVQLQESGPGLVKPSETLSLTCTVSGGSISSYYWSWIRQPAGKGLEWIGRIYTSGSTNYNPSLKSRVTMSVDTSKNQFSLKLSSVTAADTAVYYCARESRGAVLTGDYYYYYYMDVWGKGTTVTVSS VL: not shown",binding result,binds
